Consider two substances from paper doi:10.1101/2025.07.29.667540.

For test [1], the target named is CyPet-Ubc9 (UniProt P63279). Nature of the test: FRET or BRET. For orientation: Bioluminescence resonance energy transfer reports proximity on the nanometre scale.
The target of test [2] is CyPet-NS1 (influenza A virus) (UniProt P03496). As to the kind of experiment: FRET or BRET.

pKd: −log10 of the molar value.

By pKd is commonly meant the Kd on a negative log10 scale, so that one unit is a factor of ten.

Chain of UniProt P03496 (P03496 whole entry): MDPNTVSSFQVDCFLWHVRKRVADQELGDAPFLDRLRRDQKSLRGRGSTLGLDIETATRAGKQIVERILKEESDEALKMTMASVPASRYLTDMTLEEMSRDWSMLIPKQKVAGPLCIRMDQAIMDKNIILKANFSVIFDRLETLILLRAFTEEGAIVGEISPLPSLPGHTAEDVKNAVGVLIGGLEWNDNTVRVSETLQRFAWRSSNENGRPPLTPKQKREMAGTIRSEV
Chain of UniProt P63279 (P63279 whole entry): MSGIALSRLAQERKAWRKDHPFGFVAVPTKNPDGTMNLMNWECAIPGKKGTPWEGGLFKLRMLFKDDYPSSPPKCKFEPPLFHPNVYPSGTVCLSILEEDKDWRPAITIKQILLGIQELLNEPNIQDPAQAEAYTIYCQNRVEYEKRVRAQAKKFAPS

Substance “YPet-NS1 (from UniProt P03496 1-230) (natural protein)” had a negative-log Kd (pKd) in test [1] of 5.32. Consider “YPet-PIAS1 (from UniProt O75925 1-651) (enzyme)”, for which, in test [2], the negative-log Kd (pKd) is 5.53.
